Test results reported in patent US20230136301A1, “Corticosteriod Reduction in Treatment with Anti-CD38 Antibody” (Janssen Biotech, Inc., priority 2021, published 2023).
Where “and” joins values, the source holds several entries; their conditions need not be identical. Identical values can stand only once.

How the values were obtained:
patients with RRMM [1] = settings: PAVO Part 2; follow-up 14.2 months; cited from earlier work
patients with RRMM [2] = assay: PAVO Part 3: treatment-emergent adverse events with DARA SC and corticosteroid tapering
Description: The PAVO (MMY1004) trial is an open-label, nonrandomized, multicenter, phase lb study consisting of 3 parts. […] Safety was assessed, with an emphasis on IRRs, while corticosteroids were reduced and discontinued.
The purpose of Part 3 was to evaluate the safety of daratumumab 1,800 mg SC delivery without predose and postdose corticosteroids after a 3-week, 2-week, and 1-week tapering schedule to assess the safety of corticosteroid-free SC daratumumab administration. A total of 42 participants were treated. […] In conjunction, patients also received a 3-week, 2-week, or 1-week steroid tapering schedule (FIG. 2). The 3-week tapering schedule (corticosteroid-free by Cycle 1 Day 22) consisted of methylprednisolone (MP) given orally (PO)/IV pre-dose (Cycle 1 Day 1, 100 mg; Cycle 1 Day 8, 60 mg; Cycle 1 Day 15, 30 mg) and PO post-dose (Cycle 1 Day 1, 20 mg for 2 days; Cycle 1 Day 8, 20 mg for 1 day; Cycle 1 Day 15, 20 mg for 1 day). The 2-week tapering schedule (corticosteroid-free by Cycle 1 Day 15) consisted of MP given PO/IV pre-dose (Cycle 1 Day 1, 100 mg; Cycle 1 Day 8, 60 mg) and PO post-dose (Cycle 1 Day 1, 20 mg for 2 days; Cycle 1 Day 8, 20 mg for 1 day). The 1-week tapering schedule (corticosteroid-free by Cycle 1 Day 8) consisted of dexamethasone 20 mg administered IV pre-dose on Cycle 1 Day 1, without post-dose administration.
The 3-week, 2-week and 1-week steroid tapering schedules were assessed by “3+3” design, followed by cohort expansion to approximately 15 patients (3-week and 2-week tapering cohorts) or 12 patients (1-week tapering cohort). The dose-limiting toxicity (DLT) assessment period in the 3-week, 2-week and 1-week tapering cohorts were Cycle 1 Day 1 through Cycle 2 Day 4, Cycle 1 Day 1 through Cycle 1 Day 25, and Cycle 1 Day 1 through Cycle 1 Day 11, respectively. […] Grade 3 or 4 IRRs only qualified as DLTs if they occurred during corticosteroid reduction or discontinuation (not during Cycle 1 Day 1). For the 3-week and 2-week groups, IRRs reported at Cycle 1 Day 1 were not considered DLTs, as corticosteroids had not yet been reduced or discontinued. Up to approximately 12 patients could be enrolled in the 1-week tapering schedule to assess safety, including IRRs.
Safety assessments included treatment-emergent adverse events (TEAEs), serious adverse events, and IRRs. All toxicities were graded according to the National Cancer Institute's Common Terminology for the Classification of Adverse Events (NCI-CTCAE) Version 4.03 (National Cancer Institute. Common Terminology Criteria for Adverse Events (CTCAE): Version 4.03.).
The safety and efficacy populations, defined as all patients who received ≥1 dose of study drug, was the primary population for analysis. […] The pharmacokinetic-evaluable population was defined as all patients who received ≥1 dose of study drug and provided ≥1 post-infusion pharmacokinetic sample. The immunogenicity population was defined as all patients who received ≥1 dose of study drug and provided ≥1 post-infusion immunogenicity sample.

Substance: DARA SC: 1,800 mg daratumumab co-formulated with 30,000 U rHuPH20 (2,000 U/mL, 15 mL), manual subcutaneous injection
- Median duration of response (patients with RRMM [1]): 15.7 months
- ORR (patients with RRMM [1]): 52%
- Grade ≥3 TEAEs, participants (patients with RRMM [2]; 1-week taper): 33.3%
- Nausea, participants (patients with RRMM [2]; 1-week taper): 16.7%
- Nervous system disorders (patients with RRMM [2]; 1-week taper): 16.7%
- Anemia, any grade TEAE (patients with RRMM [2]; 1-week taper n=12): 4 (33.3) n (%) and 4 (33.3%) n (%)
- Anemia, grade ≥3 TEAE (patients with RRMM [2]; 1-week taper n=12): 2 (16.7%) n (%) and 2 (16.7) n (%)
- Any TEAE (patients with RRMM [2]; 1-week taper n=12): 12 (100)^ n (%) and 12 (100.0%) n (%)
- Any grade ≥3 TEAE (patients with RRMM [2]; 1-week taper n=12): 4 (33.3) n (%) and 4 (33.3%) n (%)
- Arthralgia, any grade TEAE (patients with RRMM [2]; 1-week taper n=12): 3 (25.0) n (%) and 3 (25.0%) n (%)
- Asthenia, any grade TEAE (patients with RRMM [2]; 1-week taper n=12): 4 (33.3) n (%) and 4 (33.3%) n (%)
- Back pain, TEAE (patients with RRMM [2]; 1-week taper n=12): 2 (16.7%) n (%)
- Blood and lymphatic system disorders (SOC), TEAE (patients with RRMM [2]; 1-week taper n=12): 4 (33.3%) n (%)
- Blood and lymphatic system disorders (SOC), grade 3 or higher TEAE (patients with RRMM [2]; 1-week taper n=12): 2 (16.7%) n (%)
- Bone pain, TEAE (patients with RRMM [2]; 1-week taper n=12): 2 (16.7%) n (%)
- Bone pain, grade ≥3 TEAE (patients with RRMM [2]; 1-week taper n=12): 1 (8.3) n (%) and 1 (8.3%) n (%)
- Chills, TEAE (patients with RRMM [2]; 1-week taper n=12): 2 (16.7%) n (%)
- Constipation, TEAE (patients with RRMM [2]; 1-week taper n=12): 2 (16.7%) n (%)
- Cough, any grade TEAE (patients with RRMM [2]; 1-week taper n=12): 0 n (%)
- Decreased appetite, TEAE (patients with RRMM [2]; 1-week taper n=12): 1 (8.3%) n (%)
- Diarrhea, any grade TEAE (patients with RRMM [2]; 1-week taper n=12): 4 (33.3) n (%) and 4 (33.3%) n (%)
- Dizziness, any grade TEAE (patients with RRMM [2]; 1-week taper n=12): 0 n (%)
- Erythema, any grade TEAE (patients with RRMM [2]; 1-week taper n=12): 0 n (%)
- Fatigue, any grade TEAE (patients with RRMM [2]; 1-week taper n=12): 1 (8.3) n (%) and 1 (8.3%) n (%)
- Gastrointestinal disorders (SOC), TEAE (patients with RRMM [2]; 1-week taper n=12): 8 (66.7%) n (%)
- General disorders and administration site conditions (SOC), TEAE (patients with RRMM [2]; 1-week taper n=12): 9 (75.0%) n (%)
- Headache, any grade TEAE (patients with RRMM [2]; 1-week taper n=12): 1 (8.3) n (%) and 1 (8.3%) n (%)
- Lymphopenia, grade ≥3 TEAE (patients with RRMM [2]; 1-week taper n=12): 1 (8.3) n (%) and 1 (8.3%) n (%)
- Metabolism and nutrition disorders (SOC), TEAE (patients with RRMM [2]; 1-week taper n=12): 1 (8.3%) n (%)
- Muscle spasms, any grade TEAE (patients with RRMM [2]; 1-week taper n=12): 3 (25.0) n (%)
- Musculoskeletal and connective tissue disorders (SOC), TEAE (patients with RRMM [2]; 1-week taper n=12): 8 (66.7%) n (%)
- Musculoskeletal and connective tissue disorders (SOC), grade 3 or higher TEAE (patients with RRMM [2]; 1-week taper n=12): 1 (8.3%) n (%)
- Nasopharyngitis, any grade TEAE (patients with RRMM [2]; 1-week taper n=12): 1 (8.3) n (%) and 1 (8.3%) n (%)
- Nausea, any grade TEAE (patients with RRMM [2]; 1-week taper n=12): 2 (16.7) n (%) and 2 (16.7%) n (%)
- Nervous system disorders (SOC), TEAE (patients with RRMM [2]; 1-week taper n=12): 2 (16.7%) n (%)
- Neutropenia, grade ≥3 TEAE (patients with RRMM [2]; 1-week taper n=12): 0 n (%)
- Oropharyngeal pain, TEAE (patients with RRMM [2]; 1-week taper n=12): 0 n (%)
- Pain in extremity, any grade TEAE (patients with RRMM [2]; 1-week taper n=12): 3 (25.0) n (%) and 3 (25.0%) n (%)
- Patients with a serious TEAE (patients with RRMM [2]; 1-week taper n=12): 4 (33.3%) n (%)
- Peripheral edema, any grade TEAE (patients with RRMM [2]; 1-week taper n=12): 4 (33.3) n (%) and 4 (33.3%) n (%)
- Pyrexia, any grade TEAE (patients with RRMM [2]; 1-week taper n=12): 3 (25.0) n (%) and 3 (25.0%) n (%)
- Respiratory, thoracic and mediastinal disorders (SOC), TEAE (patients with RRMM [2]; 1-week taper n=12): 1 (8.3%) n (%)
- Skin and subcutaneous tissue disorders (SOC), TEAE (patients with RRMM [2]; 1-week taper n=12): 0 n (%)
- Vomiting, TEAE (patients with RRMM [2]; 1-week taper n=12): 2 (16.7%) n (%)
- TEAEs with an outcome of death (patients with RRMM [2]; 1-week taper, neither treatment-related): 2 participants
- Grade 5 TEAEs (patients with RRMM [2]; 1-week taper, staphylococcal pneumonia and pulmonary embolism): 2 (16.7%) n (%)
- Grade ≥3 TEAEs, participants (patients with RRMM [2]; 2-week taper): 53.3%
- Nausea, participants (patients with RRMM [2]; 2-week taper): 20%
- Nervous system disorders (patients with RRMM [2]; 2-week taper): 26.7%
- TEAEs with an outcome of death (patients with RRMM [2]; 2-week taper): No deaths
- Anemia, any grade TEAE (patients with RRMM [2]; 2-week taper n=15): 2 (13.3) n (%) and 2 (13.3%) n (%)
- Anemia, grade ≥3 TEAE (patients with RRMM [2]; 2-week taper n=15): 1 (6.7) n (%) and 1 (6.7%) n (%)
- Any TEAE (patients with RRMM [2]; 2-week taper n=15): 15 (100)^ n (%) and 15 (100.0%) n (%)
- Any grade ≥3 TEAE (patients with RRMM [2]; 2-week taper n=15): 8 (53.3) n (%) and 8 (53.3%) n (%)
- Arthralgia, any grade TEAE (patients with RRMM [2]; 2-week taper n=15): 4 (26.7) n (%) and 4 (26.7%) n (%)
- Asthenia, any grade TEAE (patients with RRMM [2]; 2-week taper n=15): 2 (13.3) n (%) and 2 (13.3%) n (%)
- Back pain, TEAE (patients with RRMM [2]; 2-week taper n=15): 3 (20.0%) n (%)
- Blood and lymphatic system disorders (SOC), TEAE (patients with RRMM [2]; 2-week taper n=15): 3 (20.0%) n (%)
- Blood and lymphatic system disorders (SOC), grade 3 or higher TEAE (patients with RRMM [2]; 2-week taper n=15): 3 (20.0%) n (%)
- Bone pain, TEAE (patients with RRMM [2]; 2-week taper n=15): 3 (20.0%) n (%)
- Bone pain, grade ≥3 TEAE (patients with RRMM [2]; 2-week taper n=15): 1 (6.7) n (%) and 1 (6.7%) n (%)
- Chills, TEAE (patients with RRMM [2]; 2-week taper n=15): 1 (6.7%) n (%)
- Constipation, TEAE (patients with RRMM [2]; 2-week taper n=15): 3 (20.0%) n (%)
- Cough, any grade TEAE (patients with RRMM [2]; 2-week taper n=15): 4 (26.7) n (%) and 4 (26.7%) n (%)
- Decreased appetite, TEAE (patients with RRMM [2]; 2-week taper n=15): 1 (6.7%) n (%)
- Diarrhea, any grade TEAE (patients with RRMM [2]; 2-week taper n=15): 3 (20.0) n (%) and 3 (20.0%) n (%)
- Dizziness, any grade TEAE (patients with RRMM [2]; 2-week taper n=15): 1 (6.7) n (%) and 1 (6.7%) n (%)
- Erythema, any grade TEAE (patients with RRMM [2]; 2-week taper n=15): 4 (26.7) n (%) and 4 (26.7%) n (%)
- Fatigue, any grade TEAE (patients with RRMM [2]; 2-week taper n=15): 4 (26.7) n (%) and 4 (26.7%) n (%)
- Gastrointestinal disorders (SOC), TEAE (patients with RRMM [2]; 2-week taper n=15): 7 (46.7%) n (%)
- General disorders and administration site conditions (SOC), TEAE (patients with RRMM [2]; 2-week taper n=15): 10 (66.7%) n (%)
- Headache, any grade TEAE (patients with RRMM [2]; 2-week taper n=15): 1 (6.7) n (%) and 1 (6.7%) n (%)
- Lymphopenia, grade ≥3 TEAE (patients with RRMM [2]; 2-week taper n=15): 0 n (%)
- Metabolism and nutrition disorders (SOC), TEAE (patients with RRMM [2]; 2-week taper n=15): 4 (26.7%) n (%)
- Muscle spasms, any grade TEAE (patients with RRMM [2]; 2-week taper n=15): 0 n (%)
- Musculoskeletal and connective tissue disorders (SOC), TEAE (patients with RRMM [2]; 2-week taper n=15): 9 (60.0%) n (%)
- Musculoskeletal and connective tissue disorders (SOC), grade 3 or higher TEAE (patients with RRMM [2]; 2-week taper n=15): 1 (6.7%) n (%)
- Nasopharyngitis, any grade TEAE (patients with RRMM [2]; 2-week taper n=15): 5 (33.3) n (%) and 5 (33.3%) n (%)
- Nausea, any grade TEAE (patients with RRMM [2]; 2-week taper n=15): 3 (20.0) n (%) and 3 (20.0%) n (%)
- Nervous system disorders (SOC), TEAE (patients with RRMM [2]; 2-week taper n=15): 4 (26.7%) n (%)
- Neutropenia, grade ≥3 TEAE (patients with RRMM [2]; 2-week taper n=15): 3 (20.0) n (%) and 3 (20.0%) n (%)
- Oropharyngeal pain, TEAE (patients with RRMM [2]; 2-week taper n=15): 3 (20.0%) n (%)
- Pain in extremity, any grade TEAE (patients with RRMM [2]; 2-week taper n=15): 1 (6.7) n (%) and 1 (6.7%) n (%)
- Patients with a serious TEAE (patients with RRMM [2]; 2-week taper n=15): 6 (40.0%) n (%)
- Peripheral edema, any grade TEAE (patients with RRMM [2]; 2-week taper n=15): 0 n (%)
- Pyrexia, any grade TEAE (patients with RRMM [2]; 2-week taper n=15): 2 (13.3) n (%) and 2 (13.3%) n (%)
- Respiratory, thoracic and mediastinal disorders (SOC), TEAE (patients with RRMM [2]; 2-week taper n=15): 8 (53.3%) n (%)
- Skin and subcutaneous tissue disorders (SOC), TEAE (patients with RRMM [2]; 2-week taper n=15): 5 (33.3%) n (%)
- Vomiting, TEAE (patients with RRMM [2]; 2-week taper n=15): 2 (13.3%) n (%)
